Data taken from a protein production outcome set (Wang et al. 2014).

Assay: label from the status in PepcDB records

Sequence	protein production
MCLCQLSRRKKRPDDSDTQSAPGAVQGTGADYSGAVTASAASTVTHPTVTRHVTASGARIYTIGIRAFEHLGVNVFLVVVGDPQQPSYTALIDAGSSFDFSQQGLLDGLKRVREEYGEAWSWETLSRLVITHPHPDHVGGLPFVRTLTAAPVAAHALAAAVIEEPGRRAEAFKLGADAMLARLGVPEGEYAARLRRRAGNLMSPSGVKVETALQDGDTLDGLFTVLHTPGHDGAQICLRLDEVLLSADHLLPHNSPPLMPGWMLPGSGLGPYLAALDHIETLEGVDLALGSHDEPMPDWRGRVDFLRRRYDDKLRGVLGAASEPQTIYALTCAVNPRLRAAQALLLLDQTAALVEELVVRGELHETREQAADGERWTYQRA	failed
TATLILDDGLAIRYANPAAELLFSQSAKRIVEQSLSQLIQHASLDLALLTQPLQSGQSITDSDVTFVVDGRPLMLEVTVSPITWQRQLMLLVEMRK	not failed
MTDRLERKLAIAANQDKADLLIKNGQIVDVFQLETFEGDVVIADGEIVAISDPGTYEAHEEVDAKGAFIAPAFIDGHVHIESSMVAPEQFAKVVVPHGVTTVIADPHEIANVAGVQGVEYMLDASEGIPLDVKMMVPSCVPATPFEHSGARLTAEEVAELFRDPRIFGLGEVMDYPAVLTRDQEMMAKLKAAHSEGRIVDGHGAGLDSVALNAYTAAGIGNDHEAVTPEEAKARLQRGMYLLIREGTAAKDFDALMKAITPMNSRRALFVTDDKHLDELVEEGSIDHHVRKAIQIGVNPLQAIQMASLNAAECFKLAKKGAIAPGFTADLLFIEDLQSLAITHVFKNGTCVAKNGKLIVPIRETVQPPQRLLESVNMKLVTKEQLELSLQSDEEAHLIQIQPGSIVTKHIREKVAVKDGVFIPSVARDQLKLVVAERHHKRGTVGVGIVKGFGLTKGAIATTVAHDSHNIVAVGTNDEDLLAAIKELENIQGGMTIVKDGKVLVSLPLTIGGLMSDQSYDVVCEQIKSVDAAIGALGFVGDFNPFLTLSFLALPVIPEIKLTDQGLFDVTSFSFIDQQVYAEETN	failed
MPKPGILKSKSMFCVIYRSSKRDQTYLYVEKKDDFSRVPEELMKGFGQPQLAMILPLDGRKKLVNADIEKVKQALTEQGYYLQLPPPPEDLLKQHLSVMGQKTDDTNK	not failed
MKKLLLTVIQIALLFIFARLINWVTALLHINIPGSIIGIVILFTLLHFNIIKLEWIELGAAWLLGELLLFFIPSAVGVIEYGDIMSKFGVSILLVVIISTFVVMVSTGTLTQLIAKRKEKKHTCSSEL	failed
MVKPMHLFAVVDALEQAQQFQQVLASRDVSTELVQIEQLNARFLRHHPELALCVDLDGLWLSANGMKMQPDWQAEIPRLKRASLKSEMIARACQINEQPSLIDATAGLGHDSLLMAYLGAHVTLVERHPVLFTLLEDAKSKAENDPFLSKYMQRIHLIFQDAHYYLQQCNQDDRKVDVIYLDPMFPQRDQHHQVIKKQAQVKKQMQLLHLLLPEDGEMDLGDQLLPLAQQIASRVVVKRPKHAVFLNEQQPDHQWQGDACRFDAYFQISMLEHHHHHH	failed
MKFSYKFSNLLGTIYRNGNLVFTPDGNSVISPVGNRITVYDLKNNKSRTLSLESRYNYTNIALSPDGSLLIAVNEKGEAQLISMMSCTVIHRHKFQTGVQCICFSPNGAFFAVAVQNVVLIFCAPGEITGEYNPFVLRRRFLGGFDDVTWLDWSSDSRLLAIGCRDSSTKIVAINYTKNFRTYNLSGHTDAIVACFFEANSLHLNTISRNGQLCLWECSLAPSDLEDAERPKIAPPQRKKEKKAVSDNESEDDVENVVEKDALKEESTKEAEDVNHIKNEDETKSHPFFYKKITRHYLADEPRKEQRDVQLTAANYNTRTKVLVVAFSSGAFYLYELPDVNMIHSLSISDYPISAALFNCTGDWVALASREIGQLLVWEWQSEQYIMKQQGHSSEMTCIAYSSDGQFIATGGEDSKVKLWNTQSSFCFVTFSEHTSGVTGIQFSRNKKFLVSSSLDGTVRAFDVNRYRNFRTFTSPNPAQFSCVAVDYSGELVVAGGQDVFDIFLWSVKTGKLLEIISGHEGPVVSIAFSPVATSSTLVSGSWDKTVKIWNCLESNSEHETIDAVSDVTNVTFSPSGEEIAVATLSGNITIFDIKSAGQVTTIEGRNDLSAGRLETDIITARKNAQANYFSTIEYSADGECILAAGKSANICIYHVREAILLKKFEITQNHSLDGLNDFISRKHLSEFGNMALVEEREELEGGRVAIRLPGVQRGDMSSRRFQQEVRVFSVKFSPTGQAFAAAGTEGLCIYALDKGVVFDPFDLSLEVTPKAVHESLKQQNYTKALVMSLKLNEPNLIALVLERVPYKDVELVCADLSPEFAQRLLQQLARQLQSTPHIEFYLQWSCCLLTKHGNQDGVFQHTGLLALHEVLSRKYEMLNKICDYNKYTLKVLLDRADKLEQKNEGKPNATEEDSDEEMLLIRSKDDENGQAQFSDEEESDSGSEEEMA	failed
MAHHHHHHMGGPPTIEELKREKIIPHVFPDENVDLTVDMYISFKSGKEVNHGNILDLAGTGSVPRNIKFSEEPPEDYCYILFMIDPDFPSRRRPDGRDYVHWAVSGIKSKELVKGTDKNCITLLPYVGPSIKKGTGLHRISFILSLVKEENKGNVTGVPLYRGEHYITRVKFNNCQSAYNVIQMNDMKIVGFNWCQIEA	not failed
MRNQFDLELHELEQSFLGLGQLVLETASKALLALASKDKEMAELIINKDHAINQGQSAIELTCARLLALQQPQVSDLRFVISIMSSCSDLERMGDHMAGIAKAVLQLKENQLAPDEEQLHQMGKLSLSMLADLLVAFPLHQASKAISIAQKDEQIDQYYYALSKEIIGLMKDQETSIPNGTQYLYIIGHLERFADYIANICERLVYLETGELVDLN	not failed
MTEAIVASVATEPSLRPLAVLLVPLVTVGLIFLSKNRPNIREAWSILAAVTMFGIVASMVPDVLNGRVHETDLGFFVEGIELVLRADGLGMLFALVASGLYVVTAIYSIGYMRGHHEPFQTRFFAMLCASVGAALGVAFASNLFMLLVFYEVLTLATYPLVAHDESEKARVSGYKYLAYALSGGLAVFGGMLAVYWLTDPSTITFTRGGIEGLATVAAADPWAARGAFALLAGGFAVKAAVMPLHSWLPSAMVAPTPVSGLLHAVAVVKAGAFGVARTIIDVFGPETVRQIGMGLPLTIAAGATILIASLFALRQDNLKARLAYSTIAQLSYIVLGLSLLSGMGLMGGLLHIPAHAFSKLTLFLCAGALYVELDVKYISEMAGVGKRMPVTMGAFGLASFSMAGIPLMAGFVSKWHLIWGGAEAGYLLVAPLLVLSGVLNVAYFWPIIYTAFFESEDDADQKPVLDNPFGGVFDDDAYLTDGGVSSDDQHEDDSHDDHHDDGHHARPELPPAGGWDRSNWYGGETTLLLVAPLVTTATLMFIFGVAPDYIVFFDLIEGIVDGALEVDN	failed
MTGVLTADRPPKPAAPRRYTVALARDEDDVRAAQRLRHDVFAGEMGALLASPQPGHDVDAFDAYCDHLLVREETTGQVVGTYRLLPPERAAVAGRLYAESEFDLAALDPIRSSLVEVGRSCVHPDHRDGAVIGLVWAGIARYMTDRGHAWLAGCCSLPLADGGALAAGAWDRVRTKHLAPEEYRVRPLLPWVPRPAAPAARTELPALLRGYLRLGAWVCGEPAHDVDFGVADLYVLLPMNRVDPRYLRHFLSLAPA	failed
ETLPPRQRQRALALPLRLNPRTVALGAQWRQEAGADDAAIVQRALNWVRTEFTYTLAATKRPGLHTVDEFLFRDKAGFCEQFSSSFVVLMRASGIPARVVTGYVGGIYNNLGHYWVIRRMDAHAWAEVWLPQRGWVRVDPTAAVAPERIRDTLEDRLAQNNNDASIDSHWRLADIGDWLRHSWNNLVLGFDAKRQQQLLHSFGINHLYVSQLMMLFIAFTSVSLGLMAWWLARGERERDALLRAWHRLDRHYARLGLGRTRHEPALVW	failed
MSAQFMTTVPVVLYLALSFGVALWARGRTAEGGSAKDIIEEYYIGGRSMGGFVLAMTIIASYTSAGSFVGGPGVAYRLGLSWVLLAMIQVPTTFLTLGVLGKRFAIVARRAGAVTLTDYLLARYRSHTVVILCSAALLVFFMAAMLAQFIGGARLFQTVTGYPYVVGLALFGVTVVLYTAVGGFRAVVVTDAVQGIVMVVAVVVVLLAVIDAGGGMTQCIATLKAIDPGLITPTGPGDAVPQPFMLSFWVLVGLGVLGLPQTTQRCMGYRDSRAMHDAMIIGTLLIGFMILCAHLAGTLGRAVLPDLPAGDLAMPSLIVQLLSPFWAGVFIAGPLAAIMSTVDSMLLLASAAIVKDLYVRYRLGGDTSRLRPVTMKRMSVASTAVIGVLVFVAAMEPPDLLVWINLFAFGGLEAVFLWPLVLGLYWRRGNATGAIASILSGVTAFVWLTIAKPDMGGIHAIVPTTLLSLVMFVAGSLAGRPSGREVDALFGGERS	failed
MRNPSEDHMMRTPYQIVADHYAASDRHDPAAMMADIAPAIEWTEMAGFPCAGTYRSADEIVRNVFRRLGEEWDGYTFKLDALHDAGDTVIGVGRYSGTYRRTGKSFECRVAHVWRVDAGKIVHFEQFTDTLLVAQAMQP	not failed
MLFGGNRNKMLKTIITSAITYSSTAIDLLIILMLFFAKIKDKKGIRDIYIGQFLGSDVLILVSLFFAFILHYVPDKRLLGLLGIIPIFLGLKALIFGDSDGEKMANKELNNNNNKMNLIKTLMFITIVSCGADNIGLFVPYFISLTPLNLVITLIVFLIMIFLLVFVAQKLANVPTIGEVLEKYSRWFIGFVYIFIGGSVLIENGSIQFIINLFK	failed
MKDLSSIVAKFNTQGTITEIKPLGAGLINDTYKVNTQEADAPDYVLQRINHAIFQNVEMLQSNIAAVTGHIRKKLTEAGEADIDRKVLSFLATEEGKTYWFDGESYWRVMVFIPRAKTYETVNPEYSNYAGEAFGNFQAMLADIPETLGETIPDFHNMEFRLKQLRDAVAANAAGRVAEVQYYLDEIEKRADEMCKAERLFREGKLPKRVCHCDTKVNNMMFDEDGKVLCVIDLDTVMPSFIFSDYGDFLRTGANTGDEDDKDLNRVNFNMEIFKAFTKGYLKGAKSFLTPIEIENLPYAAALFPYMQCVRFLADYINGDTYYKIKYPEHNLVRTKAQFKLLQSVEEHTPEMVAFINECLVNGLEHHHHHH	failed
MPSLFSLYRKIFFGRKPGWDQQPLPYIKVTAPNVRVSEAKISQYAQVCGFDFDGKLLPPTYLYVMAFRLHAVIFTHDGITFPLLGMIHLKNRIQVYRPAAVDEVFALECALTTSRETDSGLEFEFVSKAFVGEELVWESLSTYLYRIETAGRRVRPPKALDMAWDSPQSWELGEDLGRRYAKASGDYNLIHLHPMLSKRFGFDRVLAHGMWSKARCLAELMPEIGERPFVVDVAFKLPLLMPAEVGFGYEKTEDKWVFELRDSKGRRPHLSGEVQL	failed
MELKHGYYHLIAILTVAIWGLTFISTKVLINHGLTPQEIFFYRFLIAYLGIWVISPKRLFTNNWQDELWLVAGGIFGGSLYFFTENTALGITQASNVSFIICTAPLLTTILSLLFYKSEKASKGLIYGSLLALMGVGLIVFNGSFVLKISPIGDLLTLLAALSWAFYSLIIKKMAGRYPTIFITRKIFFYGVLTILPAFLLHPLHPDTAVLLQPAVLFNLLFLAVLASLICYVLWNVVLKQLGTVRASNYIYLNPLVTMIASFLILDEKITLVALGGAACIVCGVYWAEKK	failed
MNESGFLIDTHAHIDGHDFAADFDAMLSRAWEAGLSHIVTVGADLESSRAAVALAGRHERIWCAVGIHPHDAGRVTDRCYDEIRTLAQGNPKVAAIGEIGLDFFRDRSPRDEQEQVFRRFIRLARELALPIVVHDRDAHERVMAILREEKARDVGGVLHCFSGDLAMARECVDMGFLISIPGTVTYPSNEALREVVRGVKIEHLLVETDCPYLTPVPHRGKRNEPAYVRLTAEKVAELKGLSLEDVGRITSLNARRLFGIGESDQAARIAYRIRNSLYLNITNRCSNRCSFCAKFDDYTVKGHHLRLDHEPDSAEVLAAVGEPGPVDEIVFCGFGEPMLRLDLIVEVARELKKRGFRIRINTDGQANLVHGRNVLPELQGLVDCISVSLNAADADTYARLCNTPFGTNGFNGICRFLEEARLYIPTVVATAVTVPGIDVAAVRALAESLGVEFREREFAEVGLEHHHHHH	not failed
